Assay results published in the supplement of paper PMC7125110.
± gives the standard error. For some of these results: Fewer inactive variants are shown than the library holds.

B1: glmS ribozyme (parent)
chain: AUAAAAGCGCCAGAACUACAGAAAUGUAGUUGACGAGGAGGAGGUUUAUCGAAUUUUCGGCGGAUGCCUCCAAA

How the values were obtained:
Details in all cases: with glucosamine-6-phosphate
glucosamine-6-phosphate [1] = variants of: B1; assay: kcat; higher = faster cleavage; RNA array
In short: (§1)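 Using a hybridised Cy3 probe at 37 °C, barcoded ribozyme variants transcribed in situ by E. coli RNA polymerase on sequenced MiSeq chips were monitored across tiles imaged over ~14 h. The flow contained glucosamine-6-phosphate from 40 μM to 10 mM in HEPES/KCl/Mg(OAc)2 buffer. Signals were normalised to baseline and to non-cleaving reference variants before per-tile medians were fit to one- or two-exponential decays to yield kobs. Weighted Michaelis–Menten fits across concentrations gave kcat and KM.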

glucosamine-6-phosphate [2] = variants of: B1; assay: self-cleavage kobs at 2500 uM GlcN6P; higher = faster cleavage; RNA array
In short: as §1

glucosamine-6-phosphate [3] = variants of: B1; assay: self-cleavage kobs at 40 uM GlcN6P; higher = faster cleavage; RNA array
In short: as §1

glucosamine-6-phosphate [4] = variants of: B1; assay: self-cleavage kobs at 160 uM GlcN6P; higher = faster cleavage; RNA array
In short: as §1

glucosamine-6-phosphate [5] = variants of: B1; assay: self-cleavage kobs at 640 uM GlcN6P; higher = faster cleavage; RNA array
In short: as §1

glucosamine-6-phosphate [6] = variants of: B1; assay: KM; higher = weaker cofactor use; RNA array
In short: as §1

glucosamine-6-phosphate [7] = variants of: B1; assay: self-cleavage kobs at 10000 uM GlcN6P; higher = faster cleavage; RNA array
In short: as §1

A48G G59A
kcat (glucosamine-6-phosphate [1]): 5.08e-05 ± 1.8e-05 s⁻¹ | self-cleavage kobs at 2500 uM GlcN6P (glucosamine-6-phosphate [2]): 6.29e-05 ± 1.8e-05 s⁻¹

U45A C67A C68G
kcat (glucosamine-6-phosphate [1]): 1.46e-05 ± 7.2e-06 s⁻¹

U45A U47A
kcat (glucosamine-6-phosphate [1]): 0.0227 ± 0.0082 s⁻¹ | self-cleavage kobs at 40 uM GlcN6P (glucosamine-6-phosphate [3]): 0.00126 ± 0.0002 s⁻¹ | self-cleavage kobs at 160 uM GlcN6P (glucosamine-6-phosphate [4]): 0.00413 ± 0.001 s⁻¹ | self-cleavage kobs at 640 uM GlcN6P (glucosamine-6-phosphate [5]): 0.00902 ± 0.0014 s⁻¹ | self-cleavage kobs at 2500 uM GlcN6P (glucosamine-6-phosphate [2]): 0.0263 ± 0.0064 s⁻¹

G41A A53U
kcat (glucosamine-6-phosphate [1]): 0.000693 ± 8.4e-05 s⁻¹ | KM (glucosamine-6-phosphate [6]): 562 ± 120 µM | self-cleavage kobs at 40 uM GlcN6P (glucosamine-6-phosphate [3]): 5.42e-05 ± 9e-06 s⁻¹ | self-cleavage kobs at 160 uM GlcN6P (glucosamine-6-phosphate [4]): 0.00012 ± 3.1e-05 s⁻¹ | self-cleavage kobs at 640 uM GlcN6P (glucosamine-6-phosphate [5]): 0.000358 ± 5.8e-05 s⁻¹ | self-cleavage kobs at 2500 uM GlcN6P (glucosamine-6-phosphate [2]): 0.00063 ± 0.00014 s⁻¹ | self-cleavage kobs at 10000 uM GlcN6P (glucosamine-6-phosphate [7]): 0.000656 ± 0.0001 s⁻¹

G41A A53C
kcat (glucosamine-6-phosphate [1]): 0.000213 ± 5.7e-05 s⁻¹ | self-cleavage kobs at 640 uM GlcN6P (glucosamine-6-phosphate [5]): 8.67e-05 ± 2.5e-05 s⁻¹ | self-cleavage kobs at 2500 uM GlcN6P (glucosamine-6-phosphate [2]): 0.000101 ± 2.7e-05 s⁻¹ | self-cleavage kobs at 10000 uM GlcN6P (glucosamine-6-phosphate [7]): 0.000202 ± 3.9e-05 s⁻¹

G40U C71U
kcat (glucosamine-6-phosphate [1]): 0.00842 ± 0.0008 s⁻¹ | KM (glucosamine-6-phosphate [6]): 1490 ± 200 µM | self-cleavage kobs at 40 uM GlcN6P (glucosamine-6-phosphate [3]): 0.000232 ± 1.6e-05 s⁻¹ | self-cleavage kobs at 160 uM GlcN6P (glucosamine-6-phosphate [4]): 0.000742 ± 0.00011 s⁻¹ | self-cleavage kobs at 640 uM GlcN6P (glucosamine-6-phosphate [5]): 0.00248 ± 0.00024 s⁻¹ | self-cleavage kobs at 2500 uM GlcN6P (glucosamine-6-phosphate [2]): 0.00464 ± 0.0005 s⁻¹ | self-cleavage kobs at 10000 uM GlcN6P (glucosamine-6-phosphate [7]): 0.00794 ± 0.00065 s⁻¹

A42G U47G
kcat (glucosamine-6-phosphate [1]): 0.00929 ± 0.0033 s⁻¹ | self-cleavage kobs at 40 uM GlcN6P (glucosamine-6-phosphate [3]): 0.000293 ± 6.2e-05 s⁻¹ | self-cleavage kobs at 160 uM GlcN6P (glucosamine-6-phosphate [4]): 0.00105 ± 0.00032 s⁻¹ | self-cleavage kobs at 640 uM GlcN6P (glucosamine-6-phosphate [5]): 0.0029 ± 0.00064 s⁻¹ | self-cleavage kobs at 2500 uM GlcN6P (glucosamine-6-phosphate [2]): 0.0046 ± 0.001 s⁻¹ | self-cleavage kobs at 10000 uM GlcN6P (glucosamine-6-phosphate [7]): 0.0143 ± 0.0028 s⁻¹

G40C U45G
kcat (glucosamine-6-phosphate [1]): 0.000791 ± 0.00034 s⁻¹ | self-cleavage kobs at 160 uM GlcN6P (glucosamine-6-phosphate [4]): 9.8e-05 ± 1.7e-05 s⁻¹ | self-cleavage kobs at 640 uM GlcN6P (glucosamine-6-phosphate [5]): 0.000646 ± 0.00013 s⁻¹ | self-cleavage kobs at 2500 uM GlcN6P (glucosamine-6-phosphate [2]): 0.000445 ± 7.5e-05 s⁻¹ | self-cleavage kobs at 10000 uM GlcN6P (glucosamine-6-phosphate [7]): 0.00114 ± 0.00025 s⁻¹

G41C U56A
kcat (glucosamine-6-phosphate [1]): 0.000159 ± 4.4e-05 s⁻¹ | self-cleavage kobs at 640 uM GlcN6P (glucosamine-6-phosphate [5]): 2.18e-05 ± 1e-05 s⁻¹ | self-cleavage kobs at 2500 uM GlcN6P (glucosamine-6-phosphate [2]): 0.000129 ± 3e-05 s⁻¹ | self-cleavage kobs at 10000 uM GlcN6P (glucosamine-6-phosphate [7]): 0.000121 ± 1.5e-05 s⁻¹

U47G A48C
kcat (glucosamine-6-phosphate [1]): 0.000154 ± 1.4e-05 s⁻¹ | KM (glucosamine-6-phosphate [6]): 2250 ± 640 µM | self-cleavage kobs at 40 uM GlcN6P (glucosamine-6-phosphate [3]): < 1e-05 s⁻¹ | self-cleavage kobs at 2500 uM GlcN6P (glucosamine-6-phosphate [2]): 9.31e-05 ± 3e-05 s⁻¹ | self-cleavage kobs at 10000 uM GlcN6P (glucosamine-6-phosphate [7]): 0.000124 ± 1.9e-05 s⁻¹

G40A U46A
kcat (glucosamine-6-phosphate [1]): 0.00064 ± 0.00019 s⁻¹ | self-cleavage kobs at 640 uM GlcN6P (glucosamine-6-phosphate [5]): 0.000254 ± 5.4e-05 s⁻¹ | self-cleavage kobs at 2500 uM GlcN6P (glucosamine-6-phosphate [2]): 0.000422 ± 9.6e-05 s⁻¹ | self-cleavage kobs at 10000 uM GlcN6P (glucosamine-6-phosphate [7]): 0.000495 ± 9.6e-05 s⁻¹

U45A U54A
kcat (glucosamine-6-phosphate [1]): 0.115 ± 0.045 s⁻¹ | KM (glucosamine-6-phosphate [6]): 2630 ± 1200 µM | self-cleavage kobs at 40 uM GlcN6P (glucosamine-6-phosphate [3]): 0.00179 ± 0.00033 s⁻¹ | self-cleavage kobs at 160 uM GlcN6P (glucosamine-6-phosphate [4]): 0.00611 ± 0.0017 s⁻¹ | self-cleavage kobs at 640 uM GlcN6P (glucosamine-6-phosphate [5]): 0.0204 ± 0.0069 s⁻¹ | self-cleavage kobs at 2500 uM GlcN6P (glucosamine-6-phosphate [2]): 0.122 ± 0.049 s⁻¹ | self-cleavage kobs at 10000 uM GlcN6P (glucosamine-6-phosphate [7]): 0.0819 ± 0.035 s⁻¹

U45A A52G
kcat (glucosamine-6-phosphate [1]): 0.00326 ± 0.00073 s⁻¹ | KM (glucosamine-6-phosphate [6]): 2900 ± 900 µM | self-cleavage kobs at 40 uM GlcN6P (glucosamine-6-phosphate [3]): 5.17e-05 ± 1e-05 s⁻¹ | self-cleavage kobs at 160 uM GlcN6P (glucosamine-6-phosphate [4]): 0.000155 ± 2.1e-05 s⁻¹ | self-cleavage kobs at 640 uM GlcN6P (glucosamine-6-phosphate [5]): 0.000699 ± 8.5e-05 s⁻¹ | self-cleavage kobs at 2500 uM GlcN6P (glucosamine-6-phosphate [2]): 0.00135 ± 0.00014 s⁻¹ | self-cleavage kobs at 10000 uM GlcN6P (glucosamine-6-phosphate [7]): 0.00293 ± 0.00044 s⁻¹

U45G A64G
kcat (glucosamine-6-phosphate [1]): 0.00935 ± 0.0026 s⁻¹ | KM (glucosamine-6-phosphate [6]): 2790 ± 990 µM | self-cleavage kobs at 40 uM GlcN6P (glucosamine-6-phosphate [3]): 0.000169 ± 2.8e-05 s⁻¹ | self-cleavage kobs at 160 uM GlcN6P (glucosamine-6-phosphate [4]): 0.000411 ± 0.00011 s⁻¹ | self-cleavage kobs at 640 uM GlcN6P (glucosamine-6-phosphate [5]): 0.00161 ± 0.0003 s⁻¹ | self-cleavage kobs at 2500 uM GlcN6P (glucosamine-6-phosphate [2]): 0.00451 ± 0.00092 s⁻¹ | self-cleavage kobs at 10000 uM GlcN6P (glucosamine-6-phosphate [7]): 0.00759 ± 0.002 s⁻¹

A48G C68A
kcat (glucosamine-6-phosphate [1]): 1.35e-05 ± 5e-06 s⁻¹ | self-cleavage kobs at 40 uM GlcN6P (glucosamine-6-phosphate [3]): < 1e-05 s⁻¹
